{
  "source": "paper PMC7761795",
  "origin": "cited, not measured here",
  "key": {"UBE2N (Homo sapiens) [1]": {"molecular_target": "UBE2N (Homo sapiens) (UniProt P61088)", "sequence (P61088 whole entry)": "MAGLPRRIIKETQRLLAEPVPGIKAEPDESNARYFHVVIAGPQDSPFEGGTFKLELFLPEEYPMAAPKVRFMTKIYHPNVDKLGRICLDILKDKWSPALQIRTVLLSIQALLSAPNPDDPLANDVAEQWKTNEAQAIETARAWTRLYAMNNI", "assay": "SPR", "conditions": "cited from earlier work"}, "UBE2N (Homo sapiens) [2]": {"molecular_target": "UBE2N (Homo sapiens) (UniProt P61088)", "assay": "fluorescence polarization", "conditions": "cited from earlier work"}},
  "data": [
    {"substance": "OTUB1 (from UniProt Q96FW1)", "values": [
      {"measurement": "Kd", "setting": "UBE2N (Homo sapiens) [1]", "result": 8.9, "unit": "µM"},
      {"measurement": "Kd", "setting": "UBE2N (Homo sapiens) [2]", "result": 7.04, "unit": "µM"}
    ]}
  ]
}
